Laboratory results: paper PMC4477863

Target: Shroom2 ASD2 domain (UniProt Q13796)
Assay: pull-down of Ala mutants
Conditions: reference: Scrib-C wild type; sites S1508

Sequence of UniProt Q13796 (Q13796 whole entry, looked up, the tested form may be a part): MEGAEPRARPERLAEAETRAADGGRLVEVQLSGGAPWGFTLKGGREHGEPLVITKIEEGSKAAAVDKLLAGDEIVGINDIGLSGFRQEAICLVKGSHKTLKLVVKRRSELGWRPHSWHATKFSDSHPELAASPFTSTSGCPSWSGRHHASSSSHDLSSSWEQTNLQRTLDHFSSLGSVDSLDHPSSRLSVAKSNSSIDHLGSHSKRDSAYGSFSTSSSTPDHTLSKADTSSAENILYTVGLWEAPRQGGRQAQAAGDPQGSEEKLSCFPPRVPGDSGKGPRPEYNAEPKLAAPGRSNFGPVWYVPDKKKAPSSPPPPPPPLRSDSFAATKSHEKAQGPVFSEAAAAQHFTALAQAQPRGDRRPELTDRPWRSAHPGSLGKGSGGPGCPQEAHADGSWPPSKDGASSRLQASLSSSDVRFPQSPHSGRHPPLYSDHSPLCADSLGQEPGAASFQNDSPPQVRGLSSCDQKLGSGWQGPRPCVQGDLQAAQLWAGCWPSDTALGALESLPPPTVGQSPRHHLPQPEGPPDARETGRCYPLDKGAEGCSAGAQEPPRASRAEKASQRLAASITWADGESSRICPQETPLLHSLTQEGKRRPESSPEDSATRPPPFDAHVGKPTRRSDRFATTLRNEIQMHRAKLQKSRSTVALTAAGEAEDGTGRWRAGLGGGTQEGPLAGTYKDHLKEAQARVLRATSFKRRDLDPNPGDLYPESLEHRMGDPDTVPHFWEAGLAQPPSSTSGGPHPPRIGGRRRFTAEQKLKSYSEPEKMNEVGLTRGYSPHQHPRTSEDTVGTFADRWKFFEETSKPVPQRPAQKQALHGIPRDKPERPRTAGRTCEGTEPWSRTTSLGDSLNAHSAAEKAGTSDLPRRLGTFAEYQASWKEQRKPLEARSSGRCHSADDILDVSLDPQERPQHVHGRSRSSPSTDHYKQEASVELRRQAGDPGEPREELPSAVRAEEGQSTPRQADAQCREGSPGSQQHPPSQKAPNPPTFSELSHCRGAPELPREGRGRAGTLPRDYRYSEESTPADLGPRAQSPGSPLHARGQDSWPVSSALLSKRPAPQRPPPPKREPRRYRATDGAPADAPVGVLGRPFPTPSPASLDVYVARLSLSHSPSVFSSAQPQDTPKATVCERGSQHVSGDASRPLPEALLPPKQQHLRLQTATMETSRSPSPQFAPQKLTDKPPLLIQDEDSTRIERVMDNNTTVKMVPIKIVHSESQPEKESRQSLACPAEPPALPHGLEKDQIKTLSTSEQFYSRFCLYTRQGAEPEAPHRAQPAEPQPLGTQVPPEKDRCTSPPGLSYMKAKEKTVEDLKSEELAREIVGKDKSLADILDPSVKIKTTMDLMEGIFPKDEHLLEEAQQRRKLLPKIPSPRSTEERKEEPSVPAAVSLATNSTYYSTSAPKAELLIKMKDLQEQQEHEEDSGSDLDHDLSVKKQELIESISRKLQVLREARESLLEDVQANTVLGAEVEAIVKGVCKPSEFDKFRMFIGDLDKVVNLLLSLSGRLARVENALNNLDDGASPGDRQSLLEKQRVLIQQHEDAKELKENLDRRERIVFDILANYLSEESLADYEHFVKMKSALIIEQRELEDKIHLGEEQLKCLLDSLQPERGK

binding against the reference: weaker
Substance: Scrib Scrib-C, 1235-1630 (from UniProt Q14160-1) Scrib-C S1508A
